Measured values taken from the RNAGym collection of RNA variant scans (doi:10.1073/pnas.2313332121).

B1: TPR t1 (parent)
chain: GACCAAUCUGCCCUCAGAGCUCGAGAACAUCUUCGGAUGCAGAGGAGGCAGGCUUCGGUGGCGCGAUAGCGCCAACGUCCUCAACCUCCAAUGCAUCCCACCACAUGAUGAUGCCUGAAGAGCCUUGGUUUUUUG

Variants of: B1
Assay: polymerase ribozyme fitness, log enrichment relative to wild type (log ratio); higher = more active; in vitro selection for triplet polymerase activity
Summary of the method: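 Libraries of mutants in each subunit of a heterodimeric triplet polymerase ribozyme were generated by PCR and transcribed. In triplicate, each went through one in vitro selection round: annealing with biotinylated primer, partner subunit and triplets; frozen incubation at −7 °C; gel excision of extended constructs; streptavidin-bead capture; RT-PCR. Fitness, taken from Illumina sequencing of input and output libraries, is the logarithm of a genotype's enrichment over wild-type enrichment, averaged across replicates with inverse-variance weights. The logarithm is base 2, and genotypes needed ≥10 input reads and ≥1 read per output to be kept.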

Going from GACCAAUCUGCCCUAAGAGCUCGAGAACAUCUUCGGAUGCAGAGGAUGCAGGCUUCGGUGGCGCGAUAGCGCCAACGUCCUCAACCUCCAAUGCAUCCCACCACAUGAUGAUGCCUGAAGAGUCUUGGUUUUUUG to GACCAAUCUGCCCUCAGAGCUCGAGAACAUCUUCGGAUGCAGAGGAGGCAGGCUUCGGUGGCACGAUAGCGCCAACGUUCUCAACCUCCAAUGCUUCCCAUCACAUGAUGAUGCCUGAAGAGCCUUGGUUUUUUG, the “polymerase ribozyme fitness (log ratio)” value rises from -2.56 to -0.75.

Going from GACCAAUCUGCCCUCAGAGCUCGAGAACAUCUUCGGAUGCAGAGGAGACAGGCUUCGGUGGCGCGAUAGCGCCAACGUCCUCAACCUCCAAUGCAUACCACCACAUGAUGACGCCUGAAGAGCCUUGGUUUUUUG to GACCAAUCUGCCCUCAGAGCUCGAGAACAUCUUCAGAUGCAGAGGAGGCAGGCUUCGGUGGCGCGAUAGCGCCAACGUCCUCAACCUCCAAUGCAUCCCACCACAUGAUGAUGCCCGAAGAGCCUUGGUUUUUUG, the “polymerase ribozyme fitness (log ratio)” value falls from -2.48 to -3.83.

Compared with GACCAAUCUGCCCUCAGAGCUCGAGAACAUCUUCGGAGGCAGAGGAGGCAGACUUCGGUGACGCGAUAGCGCCAACGUCCUCAACCUCCAAUGCAUCCCACCACAUGAUGAGGCCUGAAGAGCUUUGGGUUUUUG, GCCCAAUCUGCCCUCAGAGCUCGAGAACAUCUUCGGAUGCCGAGGAGGCAGGCUUCGGUGGCGCGAUAGCGCCAACGUCCUCAACCUCCAAUGCAUCCCACCACAUGAUGAUGCCUGAAGAGCCUUGGUUUUUUG is lower in “polymerase ribozyme fitness (log ratio)” value: -1.92 for the first, -2.75 for the second.

Going from GACCAAUCUGCCCUCAGAGCUCGAGAACAUCUUCGGAUGCAGAGGAGGCAGGGUUCGGUGGCGCGAUAGCGCCAACGUCCUCAACCUCCAAUGCAUCCCACCACAUGAUGAUGUCUGAAGAACCUUGGUUUUUUG to GCCCAACCUGCCCUCAGAGCUCGAGAACAUCUUCGGAUGCAGAGGAGGCAGGCUUCGGUGGCGCGAUAGCGCCAACGUCCUCAACCUCCAAUGCAUCCCACCACAUGAUGAUUCCUGAACAGCCUUGGUUUUUUG, the “polymerase ribozyme fitness (log ratio)” value falls from -2.38 to -4.07.

Going from GACCAAUCCGCCCUCAGAGCUCGAGAACAUCUUCGGAUGAAGAGGAGGCAGGCUUCGGUGGCGCGAUAGCGCCAACGUCCUCAACCUCCAAUGCAUCCCACCACAUGAUGAUGCCUGAAGAGCCUUGGUAUUUUG to GACCAAUCUGCCCUCAGAGCUCGAGAACAUCUACGGAUGCAGAGGAGGCAGGCUUGGGUGGCGCGAUAGCUCCAACGUCCUCAACCUCCAAUUCAUCCUACCACAUGAUUAUGCCUGAAGAGCCUUCGUUUUUUG, the “polymerase ribozyme fitness (log ratio)” value falls from -0.631 to -6.53.

First: GACCAAUCUGCCCUCAGAGCUCGAGAACAUCUUCGGAUGUAGAGGAGGCAGGCUUCGGUGGGGCGAUAGCGCCAACGUCCUCAACCUCCAAUGCAUCCCACCACAUGAUGGUGCCUGAAGAGCCUUGGUUUUUUG
Second: GACCAAUCUGCCCUCAGAGCUCGAGAACAUCUUCGGAUGAAGAAGAGGCAGGCUUCGGUGGCGCGAUAGCGCCAACGCCCUCAACCUCCAAUGCAUCCCACCACAUGAUGAUGCCUGAAGAGCCUUGGUUUUUUG
The “polymerase ribozyme fitness (log ratio)” value of the first is lower: -2.32 for the first, -2.1 for the second.

Going from GACCAAUCUGCCCUCAGAGCUCUAGAACAUCUUCGGAUGCAGAGGAGGCAGGCUUCGGUGGCGCGAUAGGGCCAACGUCCUCAACCUCCACUGCAUCUCACCACAUGAUGAUGCCUGAAGAGCCUUGGUUUUUUG to GACCGAUGUGCCCUCAGAGCUCGAGAACAUCUUCGGAUGCAGAGGAGGCAGGCUUCGGUGGCGCGAUAGCGCCAACGUCCUCAACCUCCAAUGCAUCCCACCACAUGAUGAUUCCUGAAGAGCCUUGGUUUUUUG, the “polymerase ribozyme fitness (log ratio)” value rises from -7.47 to -1.74.

Going from GACCAAUCUGCACUCAGAGCUCGAGAACAUCUUCGGAUGCAGAGGAGGCAGGGCUCGGUGGCGCGAUAGCGCCAACGUCCUCAACCUCCAAUGCAUCCCACCACAUGAUGAUGCCUGAAGCGCCUUGGUUUUUUG to GACCAAUCGGCCCUCAGAGCUCGAGAACAUCUUCGGAUGCUGAGGAGGCAGGCUUCGGUGGCGCGAUAGCGCCAACGUCCUCAACCUCCAAUGCCUCCCACCACAUGAUGAUGCCUGAAGAGCCUUGGUUUUUUG, the “polymerase ribozyme fitness (log ratio)” value falls from 1.77 to -2.53.

First: GACCAAUCUGCCCUCAGAGCUCGAGAACACCUUCGGAUGCAGAAGAGGCAGGGUUCGGUGGCGCGAUAGCGCCAACGUCCUCAACCUCCAAUGCAUCCCACCACAUGAUGAUGCCUGAAGAGCCUUGGUUUUUUG
Second: GACCAAUCUGCCCUCAGAGCUCGAGAACAUCUUCGGAUGCAGAGGAGGCAGGCUCCGGUGGCUCGAUAGCGCCAACGUCCUCAACCUCCAAUGCAUCCCACCACAUGAUGAUGCCUGAAGAGCCUUGGUUUUUUG
The “polymerase ribozyme fitness (log ratio)” value of the first is lower: -5.41 for the first, -1.09 for the second.

Compared with GACCAAUCUGCCCUCAGAGCUCGAGAACAUCUUCGGAUGCAGAGGUGGCAGGCUUCGGUGGCGCGAUAGCGCCAACGUCCUCAACCUCCAAUACAUCCCACCACAUGAUGAUGCCUGAAGAGCCUUGGUUUUUUG, GACCAAUCUGCCCUCAGAGCUCGAGAACAUCUUCGGAUGCAGAGGAGGCAGGCUUCGGUGGCGCGAUACCGCCAACGUCCUCAACCUCCAAUGCAUCCCACCACAUGAUGAUGCCUGAAGAGCCUUGGUUUUGUG is higher in “polymerase ribozyme fitness (log ratio)” value: -1.93 for the first, -1.57 for the second.

Compared with GACCAAUCUGCCCUCAGAGCUCGAGAACAUCUUCGGAUGCAGAGGAGGCAGGCUUCGGUGGCGUGAUAGCGCCAACGUCCUCAACCUCCAAUGUAUCCCACGACAUGAUGAUGCCUGAAGAGCCUUGGUUUUUUG, GACCAAUCUGCCCUCAGAGCUUGAGAACAUCUUCGGAUGCAGAGGAGGCAGGCUUCGGUAGCGCGAUAGCGCCAACGUCCUCAACCUCCAAUGCAUCCCACCACAUGAUGAUGCCUGAAGAGACUUGGUUUUUUG is higher in “polymerase ribozyme fitness (log ratio)” value: -7.24 for the first, -4.89 for the second.

Going from GACCAAUCUGCCCUCAGAGCUCGAGAACAUCUUCGGAUGCAGAGGAGGCAGGCUUCGGUGGCGCGAUAGCGCCAACGUCCUCAACCUCCAAUGCAUCCCACCACAUGAUGAUGCCUGAAGCGCCUUGGUUUUUUG to GACCAAUCUGCCCUCAGAGCUCGAGUACAUCUUCGGAUGCAGAGGUGGCAGGCUUCGGUGACGCGAUAGCGCCAACGUCCUCAACCUCCAAUGCAUCCCACCACAUGAUGAUGCCUGAAGAGCCUUGGUUUUUUG, the “polymerase ribozyme fitness (log ratio)” value falls from 1.74 to -3.77.

Going from GACCAAUCUGCCCUCAGAGCACGAGAACAUCUUCGGAUGCAGAGGAGGCAGGCUUCGGUAGCGCGAUAGCGCCAACGUCCUCAACUUCCAAUGCAUCCCACCACAUGAUGAUGCCUGAAGAGCCUUGGUUUUUUG to GACCAAUCUGCCCUGAGAGCUCGAGAACAUCUUCGGAUUCAGAGGAGGCAGGCUUCGGUGGCGCGAUAGCGACAACGUCCUCAACCUCCAAUGCAUCCCACCACAUGAUGAUGCCUGAAGAGCCUUGGUUUUUUG, the “polymerase ribozyme fitness (log ratio)” value falls from -1.23 to -3.5.

First: GACCAAUCUGCCCUCAGAGCUCGAGAACAUCUUCGGAUGCAGAGGAGGCCGGUUUCGGUGGCGCGAUAGCGCCAACGUCCUCAGCCUCCAAUGCAUCCCACCACAUGAUGAUGCCUGAAGAGCCUUGGUUUUUUG
Second: GACCAAUCUGCCCUCAGAGCUCGAGAACAUCUUCGGAUGCAGAGGAGGCAGGCUUCGGUGGCGCGAUAGCGCCAACGUCCUCAACCUCCAAUGCAUCCCACCAAAUGAUGAUGCCUGAUGAGCCUUGGUUUUUUG
The “polymerase ribozyme fitness (log ratio)” value of the first is higher: -0.439 for the first, -2.35 for the second.

First: GACCAAUCUGCCCUCAGAGCUCGAGAACAUCUUCGGAUGCAGAGGAGGCCGGCUUCGGUGGCACGAUAGCGCCAACGUCCUCAACCUCCAAUGCAUCCCACCACAUGAUGAUGCCUGAAGAGCCGUUGUUUUUUG
Second: GACCAAUCUGCCCUCAGAGCUCGAGAACAUCUUCGGAUGCAGAGGAGGCAGGCUUCGGUGGCGCGAUAGCGCCAACGUCCUCAACCUCCAAUGCAUCCCACCACAUGAUGAGGCCUGAAGAACCUUGGUUUUUUG
The “polymerase ribozyme fitness (log ratio)” value of the first is lower: -2.41 for the first, -1.74 for the second.

Going from GACCAAGCUGCCCUCAGAGCUCGAGAACAUCUUCGGAUGCAGAGGAGGCAGGCUUCGGUGGCGCGAUAGCGCCAACGUCCUCAACCUCCAAUGCAUCCCACCACACGAUGAUGCCUGAAGAGCCUUGGUUUUUUG to GACCAAUCUGCCCUCAGAGCUCGAGAACAUCUUCGGAUGCAGAGGAGGCAGGCUUGGGUGGCGCGAUAGCGCCAACGUCCUCAGCCUCCAAUGCAUCCCACCACAUGAUGAUGUCUGAAGAGCCUUGGUUUUUUG, the “polymerase ribozyme fitness (log ratio)” value falls from 1.03 to -4.61.

Going from GACCAAUCUGCCCUCAGAGCUCGAGAACAUCUUCGGAUUCAGAGGAGGCAGGCUGCGGUGGCGCGAUAGCGCCCCCGUCCUCAACCUCCAAUGCAUCCCACCAUAUGAUGAUCCCUGAAGAGCCUUGGUUUUUUG to GACCAAUCUGCCCUCAGAGCUUGAGAACAUCUUCGGAUGCAGAGGAGGCAGGCUUCGGUGCCGCGAUAGCGCCAACGUCCUCAACCUCCAAUGCAUCCCACCACAUGAUGAUGCCUGAAGAGCCUUGGUUUUUUG, the “polymerase ribozyme fitness (log ratio)” value falls from -3.51 to -4.87.

GACCAAUCUGCCCUCAGAGCUCGAGAACAUCUUAGGAUGCGGAGGAGGCAGGCUUCGGUGGCGCGAUAGCGCCAACGUCCUCAACCUUCAAUGCAUCCCAUCACAUGAUGAUGCCUGAAGAGCCUUGGUUUUUUG and GACCAAUCUGCCCUCAGAGCUCGAGAAUAUCUUCGGAUGCAGAGGAUGCAGGCUUUGGUGGCGCGAUAGCGCCAACGUCCUCAACCUCCAAUGCAUCCCACCACAUGAUGAUGCCUGAAGAGCCUUGGUUUUUUG are within 0.2 log units of each other in “polymerase ribozyme fitness (log ratio)” value: -3.38 for the first, -3.24 for the second.

GACCAAUCUGCCCUCAGAGCUCGAGAACAUCUUCGGAAGCAGAGGAGGCAGGCUUCGGUGGCGCGAUAGCGCCAACGUCUUCAACCUCCAAUGCAUCCCACCACAUGAUGAUGCCUGAAGAGUCUUGGUUUUUUG and GACCAAUCUGCCCUCAGAGCUCGAGAACAUCUUCGGAUGCAGAGGAGGCAGGCUUCGGUGGCGCGAUAGCGCCAACGCCCUCAACCUCCAAUGCAUCCCACCACAGGAUGAUGCCUGAAGAGCCUUGGUUUUUUG are within 0.2 log units of each other in “polymerase ribozyme fitness (log ratio)” value: -1.04 for the first, -1.09 for the second.

First: GACCAAUCUGCCCUCAGAGCUCGAGAUCAUCUUCGGAUGCAGAGGAGGCAGGCUUCGGUGGCACGAUAGCGCCAACGUCCUCAACCUCCAAUGCAUCCCACCACAUGAUGAUGCCUGAAGAGCCUUGGUUUUUUG
Second: GUCCAAUCUGCGCUCAGAGCUCGAGAACAUCUUCGGAUGCAGAGGAGGCAGGCUUCGGUGGCACGAUAGCGCCAACGUCCUCAACCUCCAAUGCAUCCCACCACAUGAUGAUGCCUGAAGAGCCUUGGUUUUUUG
The “polymerase ribozyme fitness (log ratio)” value of the first is lower: -4.36 for the first, -3.14 for the second.

GACCAAUCUGCCCUCAGGGCUCGAGAACAUAUUCGGAUGCAGAGGAGGCAGGCUUCGGUGGUGCGAUAGCGCCAACGUCCUCAACCUCCAAUGCAUCCCACCACAUGAUGAAGCUUGAAGAUCCUUGGUUUUUUG and GACCAAUCUGCCCUCAGAGCUCGAGAACAUCUUCGGAUGCAGAGGAGGCAGGCUUCGGUGGCGCGAUUGCGCCAACGUCCUUAACCUCCAGUGCAUCCCAGCACAUGAUGAUGCCUGAAGAGUCUUGUUUUUUUG are within 0.2 log units of each other in “polymerase ribozyme fitness (log ratio)” value: -5.9 for the first, -5.8 for the second.
